Measurements from article PMC3961692.

Key:
[1] = molecular target: human interleukin-6 (Homo sapiens) (UniProt P05231); assay: solution affinity (radiolabel, ZORBAX resin capture); details: SB17T: 40 mM HEPES pH 7.5, 102 mM NaCl, 5 mM KCl, 5 mM MgCl2, 1 mM EDTA, 0.05% Tween 20, 37 C
[2] = molecular target: human interleukin-6 (Homo sapiens) (UniProt P05231); assay: SPR; details: 2'-OMe at C3,G6,A16,A19,C20,C28; Bn-dU9 to Pe-dU; Bn-dU12 to Nap-dU; other dT Bn-dU; SB17T: 40 mM HEPES pH 7.5, 102 mM NaCl, 5 mM KCl, 5 mM MgCl2, 1 mM EDTA, 0.05% Tween 20, 37 C

Chain of human interleukin-6 (Homo sapiens) (P05231 30-212): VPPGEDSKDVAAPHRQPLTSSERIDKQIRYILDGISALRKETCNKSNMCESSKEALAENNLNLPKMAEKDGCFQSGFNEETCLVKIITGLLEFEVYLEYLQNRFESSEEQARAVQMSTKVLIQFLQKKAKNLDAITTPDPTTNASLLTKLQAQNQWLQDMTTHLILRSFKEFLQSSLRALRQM

GGCAGGUUUGGUAUUAACACGUUAAGUCGUGG [SL1023]
Kd ([1]; Bn-dU replaces dT): 1 nM

GGCAGGUUUGGUAUUAACACGUUAAGUCGUGG [SL1025]
Kd [2]: 0.23 nM | Kd ([1]; 2'-OMe at C3,G6,A16,A19,C20,C28, Bn-dU9 to Pe-dU, Bn-dU12 to Nap-dU, other dT Bn-dU): 0.16 nM

GGGGUUAUGUAGCGAGUGCGUAAGGCGGUGGGCGAGGGA [SL1030]
binding signal (fold weaker than SL1032) ([1]; Nap-dU replaces dT): 10
